Protein stability index data for 94 variants are collected here from the supplement of paper PMC10567573.

B1: HDAC6 (parent)
chain: DLMETTQYMNEGELRVLADTYDSV
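Also: lentivirally expressed fusions sorted by FACS into six bins by GFP to DsRed ratio, PSI derived from sequencing read proportions per bin multiplied by bin number.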

Variants of B1 are the subject of this data set. As to the kind of experiment: protein stability index of a GFP-peptide fusion (GPS, HEK-293T) (PSI 1-6); higher = more stable. The note with it: c terminus: a fixed tail appended.
For DLMETTQYMNEGELRVLADTYDCV [S23C], the protein stability index is 2.48. Consider DLMETTQYMNEGELRVLADTYDRV [S23R], for which the protein stability index was 2.14. As for DLMETTQYMNEGELRVLADTYDSR [V24R], the figure is 1.86; as for DLMETTQYMNEGELRVLADTYDSE [V24E], 2.01; as for DLMETTQYMNEGELRVLADTYDST [V24T], 1.63.

Turning to DLMETTQYMNEGELRVLADTYDSP [V24P], the protein stability index was determined as 2.11. As for DLMNTTQYMNEGELRVLADTYDSV [E4N], the figure is 1.98. For the variant DLMATTQYMNEGELRVLADTYDSV [E4A], the protein stability index came out at 2.03. Consider DLMETTQYMNEGELRVLADWYDSV [T20W], for which the protein stability index worked out at 1.77. As for DLMETTQYMNEGELRVLADYYDSV [T20Y], the figure is 2.06; as for DLMETTQYMNEGELRVLADNYDSV [T20N], 2.21; as for DLMETTQYMNEGELRVLADHYDSV [T20H], 2.71. As for DLMETTQYMNEGELRALADTYDSV [V16A], the protein stability index is 3.72. With DLMETTQYMNEGELRFLADTYDSV [V16F], the protein stability index was found to be 3.61. As for DLMETTQYMNEGELRSLADTYDSV [V16S], the protein stability index was determined as 4.42. As for DLMETTQYMNEGELRLLADTYDSV [V16L], the figure is 3.27; as for DLMETTQYMNEGELRVLYDTYDSV [A18Y], 1.87; as for DLMETTQYMNEGELRVLMDTYDSV [A18M], 1.12. For DLMETTQYMNEGELRVLIDTYDSV [A18I], the protein stability index worked out at 1.83. Regarding DLMETTQYMNEGELRVLVDTYDSV [A18V], the protein stability index is 2.4. As to DLMETTQYMNEGELRVLLDTYDSV [A18L], the protein stability index is 1.75. On to DLMETTRYMNEGELRVLADTYDSV [Q7R], for which the protein stability index came to 1.14. Turning to DLMETTGYMNEGELRVLADTYDSV [Q7G], the protein stability index was found to be 2.05. In the case of DLMETTTYMNEGELRVLADTYDSV [Q7T], the protein stability index amounted to 2.37. Take DLMETTPYMNEGELRVLADTYDSV [Q7P]: the protein stability index stood at 3.69.

Regarding DLMETTQYMNEGNLRVLADTYDSV [E13N], the protein stability index is 3.96. Turning to DLMETTQYMNEGILRVLADTYDSV [E13I], the protein stability index stood at 2.47. Regarding DLMETTQYMNEGVLRVLADTYDSV [E13V], the protein stability index was determined as 3.53. Take DLMETTQYMNEGYLRVLADTYDSV [E13Y]: the protein stability index is 2.83. For DLMETTQYMNEGPLRVLADTYDSV [E13P], the protein stability index turned out to be 3.74.

On to DLMETKQYMNEGELRVLADTYDSV [T6K], for which the protein stability index was determined as 1.02. As to DLMETNQYMNEGELRVLADTYDSV [T6N], the protein stability index worked out at 2.42. In the case of DLMETYQYMNEGELRVLADTYDSV [T6Y], the protein stability index is 1.66.

In the case of DLMETAQYMNEGELRVLADTYDSV [T6A], the protein stability index came out at 1.75. As for DLMETRQYMNEGELRVLADTYDSV [T6R], the figure is 2.24. As for DLMETTQHMNEGELRVLADTYDSV [Y8H], the protein stability index was determined as 4.78. DLMETTQTMNEGELRVLADTYDSV [Y8T]: the protein stability index came out at 4.36. Consider DLMETTQDMNEGELRVLADTYDSV [Y8D], for which the protein stability index was found to be 4.62. Take DLMETTQIMNEGELRVLADTYDSV [Y8I]: the protein stability index came to 4.19. For the variant DLMETTQAMNEGELRVLADTYDSV [Y8A], the protein stability index came to 3.88. Take DLMETTQMMNEGELRVLADTYDSV [Y8M]: the protein stability index amounted to 4.29.

On to DLMETTQYMEEGELRVLADTYDSV [N10E], for which the protein stability index is 2.91. As for DLMETTQYMVEGELRVLADTYDSV [N10V], the figure is 1.8. With DLMETTQYMCEGELRVLADTYDSV [N10C], the protein stability index worked out at 1.88. Turning to DLMETTQYENEGELRVLADTYDSV [M9E], the protein stability index stood at 4.61. Regarding DLMETTQYANEGELRVLADTYDSV [M9A], the protein stability index turned out to be 4.57. For the variant DLMETTQYPNEGELRVLADTYDSV [M9P], the protein stability index was determined as 4.55. The figure for DLMETTQYKNEGELRVLADTYDSV [M9K] is 4.24; for DLMETTQYLNEGELRVLADTYDSV [M9L] it is 3.84. For the variant DLMETTQYSNEGELRVLADTYDSV [M9S], the protein stability index stood at 4.68.

As to DLMETTQYMNEPELRVLADTYDSV [G12P], the protein stability index came out at 4.74. Turning to DLMETTQYMNEWELRVLADTYDSV [G12W], the protein stability index was determined as 2.03. As to NLMETTQYMNEGELRVLADTYDSV [D1N], the protein stability index turned out to be 2.18. ILMETTQYMNEGELRVLADTYDSV [D1I]: the protein stability index amounted to 3.02. The figure for DLMETTQYMNAGELRVLADTYDSV [E11A] is 2.15; for DLMETTQYMNWGELRVLADTYDSV [E11W] it is 1.89. The figure for DLMETTQYMNGGELRVLADTYDSV [E11G] is 3.58; for DLMETTQYMNDGELRVLADTYDSV [E11D] it is 1.69.

With DLMETTQYMNVGELRVLADTYDSV [E11V], the protein stability index is 2.45. With DLMETTQYMNMGELRVLADTYDSV [E11M], the protein stability index stood at 3.15. As for DLMETTQYMNIGELRVLADTYDSV [E11I], the figure is 1.86; as for DLMETTQYMNEGELRVIADTYDSV [L17I], 2.77. As for DLMETTQYMNEGELRVFADTYDSV [L17F], the figure is 2.05; as for DLMETTQYMNEGELRVKADTYDSV [L17K], 2.75; as for DLMETTQYMNEGELRVLAGTYDSV [D19G], 2.6. For DLMETTQYMNEGELRVLANTYDSV [D19N], the protein stability index worked out at 1.79.

DLMETTQYMNEGELRVLADTTDSV [Y21T]: the protein stability index is 3.1.

In the case of DLMETTQYMNEGELRVLADTIDSV [Y21I], the protein stability index was found to be 1.79. As for DLMETTQYMNEGELRVLADTWDSV [Y21W], the protein stability index came out at 2. Regarding DLMETTQYMNEGELRVLADTPDSV [Y21P], the protein stability index was found to be 2.04.

As for DLMETTQYMNEGELRVLADTQDSV [Y21Q], the protein stability index was found to be 3.21. DCMETTQYMNEGELRVLADTYDSV [L2C]: the protein stability index came out at 3.12. Turning to DFMETTQYMNEGELRVLADTYDSV [L2F], the protein stability index worked out at 3.49. As for DYMETTQYMNEGELRVLADTYDSV [L2Y], the figure is 3.88. With DQMETTQYMNEGELRVLADTYDSV [L2Q], the protein stability index was 4.68. As for DMMETTQYMNEGELRVLADTYDSV [L2M], the figure is 3.77; as for DLMEGTQYMNEGELRVLADTYDSV [T5G], 3.72; as for DLMEHTQYMNEGELRVLADTYDSV [T5H], 1.89.

As to DLMEPTQYMNEGELRVLADTYDSV [T5P], the protein stability index is 1.72.

DLMEDTQYMNEGELRVLADTYDSV [T5D]: the protein stability index is 4.43. For DLPETTQYMNEGELRVLADTYDSV [M3P], the protein stability index came to 4.65. DLWETTQYMNEGELRVLADTYDSV [M3W]: the protein stability index came out at 2.

DLQETTQYMNEGELRVLADTYDSV [M3Q]: the protein stability index stood at 3.29. The figure for DLMETTQYMNEGELVVLADTYDSV [R15V] is 2.37; for DLMETTQYMNEGELLVLADTYDSV [R15L] it is 1.5. On to DLMETTQYMNEGELYVLADTYDSV [R15Y], for which the protein stability index was found to be 2.39. DLMETTQYMNEGELPVLADTYDSV [R15P]: the protein stability index was 4.61. As to DLMETTQYMNEGELRVLADTYPSV [D22P], the protein stability index came to 1.92.

As for DLMETTQYMNEGELRVLADTYNSV [D22N], the protein stability index was determined as 1.48. The figure for DLMETTQYMNEGELRVLADTYCSV [D22C] is 2.18; for DLMETTQYMNEGELRVLADTYRSV [D22R] it is 2.91. With DLMETTQYMNEGEERVLADTYDSV [L14E], the protein stability index amounted to 2.07.

With DLMETTQYMNEGEKRVLADTYDSV [L14K], the protein stability index was found to be 2.96. As for DLMETTQYMNEGEQRVLADTYDSV [L14Q], the protein stability index is 2.28.
